Test results published in patent publication US20220396628A1.

What was measured:
[1] = target: anti-CLL-1 CAR (chimeric antigen receptor presenting the anti-CLL-1 scFv), expressed on primary human T cells; assay: flow cytometry histogram; hybridoma clonal supernatant on anti-CLL-1 CAR-transduced primary human T cells, detected with FITC goat anti-rabbit F(ab')2; fraction of events in the CAR+ gate
[2] = target: control CAR 2, expressed on T cells; assay: flow cytometry histogram; hybridoma clonal supernatant on control CAR 2-expressing T cells, detected with FITC goat anti-rabbit F(ab')2; fraction of events in the CAR+ gate
[3] = target: control CAR3, expressed on T cells; assay: flow cytometry histogram; hybridoma clonal supernatant on control CAR 3-expressing T cells, detected with FITC goat anti-rabbit F(ab')2; fraction of events in the CAR+ gate; set-up: unit not given here

CAR+ [1] | CAR+ [2] | CAR+ [3] | Binder
55.8 | 0.021 | 0.011 | KIP-10 Clone 148-4 (antibody, V domains shown) VH: QEQLEESGGDLVKPEGSLTLTCTASGFSFSGSFDVCWVRQAPGKGLEWIACIVVDSSDRTWYASWAKGRFTISKPSSTTVTLQMTSLTAADTATYFCARNDDTSGWGFNLWGPGTLVTVSS VL: DVTMTQTPASVSEPVGGTVTIKCQASQSIGSALAWYQQKPGQPPKLLIWTASNLASGVSSRFKGSRSGTDFTLTISDLECADAATYYCQCTYYGSSYINAFGGGTEVVVK
57.7 | 0.053 | 0.011 | KIP-10 Clone 147-1 (antibody, V domains shown) VH: QEQLEESGGDLVKPEGSLTLTCTASGFSFSGDYYMCWVRQAPGKGLEWIACIYVGSYIYSFYASWAKGRFTISRTSSTTVTLQMTSLTAADTATYFCARDPFATDSDVVSLWGPGTLVTVSS VL: AVVLTQTPASVSAAVGGTVTINCQASQSISTVLAWYQQKPGQRPKLLIYWASTLASGVPSRFKGSGSGTQFTLTISGVECDDAATYYCAGYKSYSNDDGAFGGGTEVVVK
55.6 | 0.021 | 0.011 | KIP-10 Clone 160-1 (antibody, V domains shown) VH: QSLEESGGDLVKPGASLTLTCTASGFSFSSNYFVCWVRQAPGKGLEWVGCINPGSGRTYSASWAKGRFTISKSSSTTVTLQMTSLTAADTATYFCARDRPGSDDYYMRDLWGPGTLVTVSS VL: DPVMTQTPASVSEPVGGTVTINCQASESIGSSLAWYQQKPGQPPKLLIYAASTLASGVSSRFKGSGSGTQFTLTISDLECADAATYYCQCSYYLNTYVGNPFGGGTEVVVK
55.9 | 0.011 | – | KIP-10 Clone 103-2 (antibody, V domains shown) VH: QSVEESGGRLVTPGTPLTLTCTVSGFSLGSYYMSWVRQAPGKGLEWIGIIYQSGNTDYASWAKGRFTISKTSSTTVDLKMTSLTTEDTATYFCAREGYAGYVGYSYNIWGPGTLVTVSS VL: AYDMTQTPASVSAAVGGTVSINCQASEDIESYLAWYQQRPGQPPKLLIYSASTLASGVSSRFKGSGSGTQFTLTISDLECADAATYYCQQGASSNDVEEPFGGGTEVVVK

The next lines start with the binder.

Binder | CAR+ [1] | CAR+ [2] | CAR+ [3]
KIP-10 Clone 15-2 (antibody, V domains shown) VH: QEQLVESGGGLVKPGASLTLTCKASGFSFSVGYDMCWVRQAPGKGLEWIACIDTDSSSRTWNASWAKGRFTISKPSSTTVTLQMTSLTAADTATYFCARNDDTSGWGSKLWGPGTLVTVSS VL: DVVMTQTPASVSEPVGGTVTIKCQASQTIGSALAWYQQKPGQPPKLLIYTASNLASGVSSRFKGSRSGTEFTLTISDLECADAATYYCQHTFYGTSYVDAFGGGTEVVVK | 58 | 0.063 | 0.011
KIP-10 Clone 63-2 (antibody, V domains shown) VH: QQQLEESGGGLVKPGGTLTLTCKASGFSFSSDYDMCWVRQAPGKGLEWIACIYAGSSDNTYYATWAKGRFTISKTSSTTVTLQMTSLTAADTATYFCARDTADINFYFKLWGPGTLVTVSS VL: DIVMTQTPASVSAAVGGTVTIKCQASESVSRWLAWYQQKPGQPPNLLIYSASTLASGVPSRFRGSGSGTEYTLTISDLECADAATYYCQGGYYSGGETYHNSFGGGTEVVVK | 57.8 | 0.021 | –
KIP-10 Clone 180-2 (antibody, V domains shown) VH: QSLEESGGGLVQPGGSLKLSCKASGFIFSDNYYMCWVRQAPGKGLELIACIYGGHIDTTYYASWVSGRFTSSKTSSTTVTLQLTSLTAADTATYFCARRTIYDDNDDYSYALHLWGPGTLVTVSS VL: ALVMTQTPSSVSEPVGGTVTINCQASQSISNLLAWYQQKPGQPPKLLIYGASNLESGVPSRFKGSGSGTEYTLTISGVECADAATYYCQQGDSSSNLDNTFGGGTEVVVK | 57.7 | – | 0.011
